The series is described as follows: background-corrected fluorescence of 3'-dye-labeled ssDNA relative to brightest sequence (3'-GCGCG) (fraction); higher = brighter dye fluorescence (less quenching). Summed up: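 Each of 1024 permuted pentamers was synthesized as single-stranded DNA on glass slides by light-directed phosphoramidite chemistry, with a 3' Cy3 or Cy5 dye alongside. Arrays were scanned at 532 or 635 nm before and after overnight deprotection with ethylenediamine/ethanol. Values average 10 features per array across at least 3 syntheses. The fluorescence readout, with unlabeled-oligo background removed, is given relative to the brightest sequence.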

± gives the standard error.

As for “TTTTTTCAGCATGCTCATGCTTTTTTTTTTTTTTTGTAGA [AGATG]”, the background-corrected fluorescence (dye: Cy3 (3' terminal)) is 0.671 ± 0.021 and the background-corrected fluorescence (dye: Cy5 (3' terminal)) was found to be 0.533 ± 0.039.

For the sequence “TTTTTGCAGCAGCAGCATGCTTTTTTTTTTTTTTTTTTTA [ATTTT]”, the background-corrected fluorescence was 0.501 ± 0.033 (dye: Cy3 (3' terminal)) and 0.411 ± 0.028 (dye: Cy5 (3' terminal)).

On to “TTTTTTGAGCATGATCATGATTTTTTTTTTTTTTTCTCGC [CGCTC]”, for which the background-corrected fluorescence was 0.548 ± 0.032 (dye: Cy3 (3' terminal)) and 0.412 ± 0.035 (dye: Cy5 (3' terminal)).

For the sequence “TTTTTTGATCATGCTGCTGATTTTTTTTTTTTTTTCGAAC [CAAGC]”, the background-corrected fluorescence runs as follows: (dye: Cy3 (3' terminal)) 0.48 ± 0.039; (dye: Cy5 (3' terminal)) 0.366 ± 0.022.

Consider “TTTTTTCATGATGATCAGCATTTTTTTTTTTTTTTGCCGT”, for which the background-corrected fluorescence was 0.651 ± 0.025 (dye: Cy3 (3' terminal)) and 0.487 ± 0.022 (dye: Cy5 (3' terminal)).

As for “TTTTTTGATCATGAGCAGCATTTTTTTTTTTTTTTCGCTT”, the background-corrected fluorescence is, setting by setting: (dye: Cy3 (3' terminal)) 0.51 ± 0.017; (dye: Cy5 (3' terminal)) 0.409 ± 0.047.

“TTTTTGCAGCATCATGATCATTTTTTTTTTTTTTTTTGCG [GCGTT]”: the background-corrected fluorescence was determined as 0.559 ± 0.028 (dye: Cy3 (3' terminal)) and 0.46 ± 0.036 (dye: Cy5 (3' terminal)).

“TTTTTGCATGAGCATCAGCATTTTTTTTTTTTTTTTCTGT [TGTCT]” showed a background-corrected fluorescence (dye: Cy3 (3' terminal)) of 0.594 ± 0.015 and a background-corrected fluorescence (dye: Cy5 (3' terminal)) of 0.433 ± 0.02.

Consider “TTTTTTGCGCATGCTGAGCATTTTTTTTTTTTTTTATACT [TCATA]”, for which the background-corrected fluorescence runs as follows: (dye: Cy3 (3' terminal)) 0.504 ± 0.024; (dye: Cy5 (3' terminal)) 0.378 ± 0.019.

In the case of “TTTTTTGCTCATCATCAGCATTTTTTTTTTTTTTTAGGGT [TGGGA]”, the background-corrected fluorescence came to 0.7155 ± 0.0051 (dye: Cy3 (3' terminal)) and 0.587 ± 0.027 (dye: Cy5 (3' terminal)).

For “TTTTTGCATGCTGATGCGCATTTTTTTTTTTTTTTTACAT”, the background-corrected fluorescence stood at 0.489 ± 0.027 (dye: Cy3 (3' terminal)) and 0.382 ± 0.025 (dye: Cy5 (3' terminal)).

Regarding “TTTTTTCAGCATGAGCATGATTTTTTTTTTTTTTTGTCTC [CTCTG]”, the background-corrected fluorescence is, setting by setting: (dye: Cy3 (3' terminal)) 0.393 ± 0.034; (dye: Cy5 (3' terminal)) 0.33 ± 0.043.

“TTTTTTGATGCTGCTGCTCATTTTTTTTTTTTTTTCAAAG [GAAAC]” returned a background-corrected fluorescence (dye: Cy3 (3' terminal)) of 0.535 ± 0.017 and a background-corrected fluorescence (dye: Cy5 (3' terminal)) of 0.396 ± 0.026.

Regarding “TTTTTTGAGCATGCTGATGATTTTTTTTTTTTTTTCTACC [CCATC]”, the background-corrected fluorescence (dye: Cy3 (3' terminal)) worked out at 0.375 ± 0.032 and the background-corrected fluorescence (dye: Cy5 (3' terminal)) was 0.284 ± 0.016.

As to “TTTTTGCATCAGCATGATGCTTTTTTTTTTTTTTTTGTCA [ACTGT]”, the background-corrected fluorescence (dye: Cy3 (3' terminal)) worked out at 0.487 ± 0.069 and the background-corrected fluorescence (dye: Cy5 (3' terminal)) turned out to be 0.439 ± 0.08.

In the case of “TTTTTGCATCATCAGCATCATTTTTTTTTTTTTTTTGGTG [GTGGT]”, the background-corrected fluorescence is, setting by setting: (dye: Cy3 (3' terminal)) 0.568 ± 0.028; (dye: Cy5 (3' terminal)) 0.456 ± 0.022.

“TTTTTGCATGCTGATGAGCATTTTTTTTTTTTTTTTACCT [TCCAT]”: the background-corrected fluorescence runs as follows: (dye: Cy3 (3' terminal)) 0.461 ± 0.017; (dye: Cy5 (3' terminal)) 0.345 ± 0.023.

“TTTTTTCATGATCATGCTGATTTTTTTTTTTTTTTGCGAC [CAGCG]” returned a background-corrected fluorescence (dye: Cy3 (3' terminal)) of 0.518 ± 0.026 and a background-corrected fluorescence (dye: Cy5 (3' terminal)) of 0.394 ± 0.023.

For “TTTTTTGATGCTGATGAGCATTTTTTTTTTTTTTTCACCT [TCCAC]”, the background-corrected fluorescence by setting is: (dye: Cy3 (3' terminal)) 0.457 ± 0.021; (dye: Cy5 (3' terminal)) 0.326 ± 0.03.

In the case of “TTTTTTGATGATGCTGCGCATTTTTTTTTTTTTTTCCAAT [TAACC]”, the background-corrected fluorescence reads like this: (dye: Cy3 (3' terminal)) 0.527 ± 0.017; (dye: Cy5 (3' terminal)) 0.394 ± 0.022.

In the case of “TTTTTGCATGCTGCTGAGCATTTTTTTTTTTTTTTTAACT [TCAAT]”, the background-corrected fluorescence runs as follows: (dye: Cy3 (3' terminal)) 0.492 ± 0.02; (dye: Cy5 (3' terminal)) 0.353 ± 0.027.

“TTTTTTCATGATCATCATCATTTTTTTTTTTTTTTGCGGG [GGGCG]”: the background-corrected fluorescence (dye: Cy3 (3' terminal)) came out at 0.701 ± 0.013 and the background-corrected fluorescence (dye: Cy5 (3' terminal)) worked out at 0.563 ± 0.045.

Turning to “TTTTTTCATGCTGAGCATCATTTTTTTTTTTTTTTGACTG [GTCAG]”, the background-corrected fluorescence worked out at 0.511 ± 0.03 (dye: Cy3 (3' terminal)) and 0.39 ± 0.032 (dye: Cy5 (3' terminal)).

In turn, “TTTTTGCATCAGCATGAGCATTTTTTTTTTTTTTTTGTCT [TCTGT]” came in with a background-corrected fluorescence (dye: Cy3 (3' terminal)) of 0.48 ± 0.021 and a background-corrected fluorescence (dye: Cy5 (3' terminal)) of 0.367 ± 0.028.

In the case of “TTTTTGCATCATCATGATGATTTTTTTTTTTTTTTTGGCC [CCGGT]”, the background-corrected fluorescence is, setting by setting: (dye: Cy3 (3' terminal)) 0.46 ± 0.032; (dye: Cy5 (3' terminal)) 0.369 ± 0.03.

With “TTTTTTGCGCAGCAGCATGATTTTTTTTTTTTTTTATTTC [CTTTA]”, the background-corrected fluorescence by setting is: (dye: Cy3 (3' terminal)) 0.404 ± 0.0099; (dye: Cy5 (3' terminal)) 0.307 ± 0.019.

For the sequence “TTTTTTCATGCGCAGCAGCATTTTTTTTTTTTTTTGATTT [TTTAG]”, the background-corrected fluorescence turned out to be 0.531 ± 0.03 (dye: Cy3 (3' terminal)) and 0.383 ± 0.029 (dye: Cy5 (3' terminal)).

Regarding “TTTTTTCATCAGCAGCATGATTTTTTTTTTTTTTTGGTTC [CTTGG]”, the background-corrected fluorescence is, setting by setting: (dye: Cy3 (3' terminal)) 0.414 ± 0.026; (dye: Cy5 (3' terminal)) 0.31 ± 0.025.

Turning to “TTTTTTGATGCTGCTGCTGATTTTTTTTTTTTTTTCAAAC”, the background-corrected fluorescence was determined as 0.428 ± 0.03 (dye: Cy3 (3' terminal)) and 0.323 ± 0.031 (dye: Cy5 (3' terminal)).

The record behind these values is the supplement of paper PMC9428881.
